Results: patent publication US11639503B2, “Anti-chymase aptamer and use for same” (RIBOMIC INC., priority 2017, dated 2023)
Oligonucleotides are written 5' to 3', each unit as a sugar letter and its base; * is a phosphorothioate linkage, no mark a phosphodiester; rarer units and linkages stand in square brackets, end groups in braces. Plain capitals give the bases only. r = 2'-OH (RNA); f = 2'-fluoro

T1: chymase purified from human skin mast cell (native, Calbiochem) (Homo sapiens, UniProt P23946)
T1 construct: Here, the native is chymase purified from human skin mast cell; purchased Calbiochem; host or cells: human skin mast cell (tissue-derived)
T1 sequence (P23946 22-247): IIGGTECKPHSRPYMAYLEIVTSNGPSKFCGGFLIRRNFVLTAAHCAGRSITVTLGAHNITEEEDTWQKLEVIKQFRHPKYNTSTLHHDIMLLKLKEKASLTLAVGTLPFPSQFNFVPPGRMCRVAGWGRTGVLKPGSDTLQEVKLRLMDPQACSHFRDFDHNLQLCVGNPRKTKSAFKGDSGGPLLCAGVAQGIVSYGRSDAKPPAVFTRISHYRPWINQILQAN

T2: chymase (recombinant, manufactured by SIGMA) (Homo sapiens, UniProt P23946)
T2 construct: purchased SIGMA
T2 sequence (P23946 22-247): T1 sequence (P23946 22-247)

B1: 5 (nucleic acid)
chain: rGrGrGrArGfCrArGrGrArGrArGrArGrGfUfCrArGrAfUrGrAfUrGrAfCfCrGrAfUfUrAfUrArGrGfUrArAfCfCrAfCfUfUrArGrGrGrGrGfCfCfUrAfUrGfCrGfUrGfCfUrArGfUrGfUrGrA
modifications: aptamer
B2: 2 (nucleic acid)
chain: rGrGrGrArGfCrArGrGrArGrArGrArGrGfUfCrArGrAfUrGrAfUfCrGrGrAfCrAfUrArAfCrAfUfUrGfUfUrGrGrGrGfUrGfUfCrArArGrGfCfCfUrAfUrGfCrGfUrGfCfUrArGfUrGfUrGrA
modifications: aptamer
B3: 7 (nucleic acid)
chain: rGrGrGrArGfCrArGrGrArGrArGrArGrGfUfCrArGrAfUrGfUfUfUrGrGfUrArGfUrArAfCfUrGrGrArAfUrArGrGrGrGfCfUrAfCrArGrGfCfCfUrAfUrGfCrGfUrGfCfUrArGfUrGfUrGrA
modifications: aptamer
B4: 4 (nucleic acid)
chain: rGrGrGrArGfCrArGrGrArGrArGrArGrGfUfCrArGrAfUrGfUrArAfCfUfCfUrAfUfUrGrArGrGrGrGfCrAfUfCrArGfCrAfCrArGfUrArGfCfCfUrAfUrGfCrGfUrGfCfUrArGfUrGfUrGrA
modifications: aptamer
B5: 8 (nucleic acid)
chain: rGrGrGrArGfCrArGrGrArGrArGrArGrGfUfCrArGrAfUrGrAfUfUrGrAfCrGrAfCfUrAfUrArGrGfUrArAfCfCfUfUfUrAfCrGrGrGrGrGfCfCfUrAfUrGfCrGfUrGfCfUrArGfUrGfUrGrA
modifications: aptamer
B6: 1 (nucleic acid)
chain: rGrGrGrArGfCrArGrGrArGrArGrArGrGfUfCrArGrAfUrGrArGfCrAfUrGfCfUfUfUfUfUrGrGfUrArAfCfCrGrAfUrArAfUrGrGrGrGrGfCfCfUrAfUrGfCrGfUrGfCfUrArGfUrGfUrGrA
modifications: aptamer
B7: 6 (nucleic acid)
chain: rGrGrGrArGfCrArGrGrArGrArGrArGrGfUfCrArGrAfUrGfUfCrAfUrGrAfCfUfUrAfUrArGrGfUrArAfCfCrGrAfUrArAfUrGrGrGrGrGfCfCfUrAfUrGfCrGfUrGfCfUrArGfUrGfUrGrA
modifications: aptamer
B8: 3 (nucleic acid)
chain: rGrGrGrArGfCrArGrGrArGrArGrArGrGfUfCrArGrAfUrGrAfUrArAfCfCrArGfUfUrGrGrGrGrGrGfUfCrArAfUfUrAfCrAfUrGrGrGrAfCfCfUrAfUrGfCrGfUrGfCfUrArGfUrGfUrGrA
modifications: aptamer

Assays:
[1] = target: T1, chymase purified from human skin mast cell (native, Calbiochem); assay: chymase enzyme activity inhibition, native substrate angiotensin I (His-Leu fluorescence); type: biochemical; details: mean of 2 or 3 measurements
Protocol: A second method of evaluation employs a native substrate. A useful native substrate for chymase is angiotensin I. Here, His-Leu, a peptide fragment released upon degradation of angiotensin I, is fluorescently derivatized, and the fluorescence intensity therefrom is quantified.
In the assay, an enzyme reaction is carried out in 50 μL of solution C. First, 0.3-0.75 ng of chymase (recombinant, manufactured by SIGMA; or native, manufactured by Calbiochem) is diluted in solution C to obtain 5 μL chymase solution. Each nucleic acid is prepared in solution C to obtain 25 μL solutions. 5 μL of each chymase dilution and 25 μL of each nucleic acid solution are mixed, and then the mixture is incubated at 37° C. for 5 minutes. Separately, 20 μL of 125 μM angiotensin I (manufactured by Peptide Institute, Inc.) is prepared in solution C and incubated at 37° C. for 5 minutes. The angiotensin I solution is added to the mixture of chymase and nucleic acid, and the enzyme reaction is initiated. After the reaction was allowed to proceed at 37° C. for 90 minutes, 25 μL of ice-cooled 30% trichloroacetic acid solution is added to terminate the reaction. The entire mixture is centrifuged at 4° C., 14000 rpm for 10 minutes, and 30 μL of the resulting supernatant is used for the subsequent reaction for fluorescent derivatization.
After 30 μL of the supernatant is added to a 96-well plate (Black, manufactured by Costar), 15 μL of 2% o-phthalaldehyde (manufactured by SIGMA) solution in methanol and 170 μL of 0.3M NaOH solution are mixed in each well, and the plate is allowed to stand at room temperature for 10 minutes. Subsequently, 25 μL of 3M HCl solution is added to terminate the reaction. The plate is set to the microplate reader SpectraMax190 (manufactured by Molecular Devices Corporation), and the fluorescence intensity is determined at an excitation wavelength of 355 nm and a fluorescence wavelength of 460 nm.
For control, samples are treated and analyzed in the same manner in two cases: use of SEQ ID NO: 58 (negative control) and use of chymostatin, a known chymotrypsin-like serine protease inhibitor (positive control). In both cases, fluorescence intensity obtained at 0 minute reaction time serves as a blank determination. Taking the fluorescence intensity detected with the addition of an equal volume of solution C, in place of each nucleic acid, in the chymase enzyme reaction as 100%, the inhibitory rate for each test substance is calculated, and the inhibitor concentration required to cause a 50% inhibition of the enzyme activity (IC50) is determined.
Whether the nucleic acids shown by SEQ ID NO: 9 and 10 inhibit the enzyme activity of chymase was determined by the following method. Angiotensin I is converted by chymase to angiotensin II, during which a peptide fragment His-Leu is released. Since the peptide His-Leu is fluorescently derivatized by o-phthalaldehyde, its fluorescence intensity can be quantitatively measured.
The total volume of solution for an enzyme reaction in the assay was set to 50 μL, and the reaction was performed in solution C buffer. At first, native (manufactured by Calbiochem) was diluted with solution C to give 5 μL thereof. Here, the native is chymase purified from human skin mast cell. The nucleic acid was serially diluted with solution C at a concentration of 0.0027-2 μM to give 25 μL thereof. The chymase solution (5 μL) and the nucleic acid solution (25 μL) were mixed, and the mixture was incubated at 37° C. for 5 min. On the other hand, […] angiotensin I (manufactured by PEPTIDE INSTITUTE, INC.) was prepared in solution C to give 20 μL thereof, which was incubated at 37° C. for 5 min. The angiotensin I solution was added to a mixture of chymase and nucleic acid to start an enzyme reaction. The final chymase concentration of the reaction solution was 0.5 nM, and the final substrate concentration was 50 μM. […]

[2] = target: T2, chymase (recombinant, manufactured by SIGMA); assay: chymase enzyme activity inhibition, synthetic substrate Suc-Ala-Ala-Pro-Phe-MCA; type: biochemical
Protocol: A first method employs a synthetic substrate. A useful chymase substrate is Suc-Ala-Ala-Pro-Phe-MCA (4-methylcoumaryl-7-amide group) (manufactured by Peptide Institute, Inc.), which contains the 4-amino acid peptide “Ala-Ala-Pro-Phe” (SEQ ID NO: 41), a standard substrate for chymotrypsin-like proteases.
The assay is performed using a 96-well plate (F16 Black Maxisorp Fluoronunc, manufactured by Nunc), with a reaction mixture volume of 100 μL, in a buffer solution (solution C; see Example 2 below). First, each nucleic acid is prepared in solution C to obtain 50 μL solutions. After 10 μL of the 1 mM substrate prepared in solution C is added, the plate is set to the microplate reader SpectraMax190 (manufactured by Molecular Devices Corporation), and incubated at 37° C. for 5 minutes. Separately, 0.05 μg of chymase (recombinant, manufactured by SIGMA) is diluted in solution C, and 40 μL of this dilution is incubated at 37° C. for 5 minutes. The chymase solution is added to the mixture of the nucleic acid and substrate to initiate an enzyme reaction. The plate containing the reaction mixture is set to the microplate reader SpectraMax190 (manufactured by Molecular Devices Corporation), and examined for time-dependent changes in the fluorescence intensity at 37° C. for 5 minutes (excitation wavelength 380 nm, detection wavelength 460 nm). A linear approximation of the increase in the fluorescence of the AMC (7-amino-4-methylcoumarine) released from the substrate by chymase activity is generated, and its slope is taken as the initial reaction velocity. For control, samples are treated and analyzed in the same manner in two cases: use of a nucleic acid pool containing a random sequence of 30 or 40 nucleotides (negative control), and use of chymostatin, a known chymotrypsin-like serine protease inhibitor (positive control). Taking the initial reaction velocity without the nucleic acid and inhibitor as a 100% enzyme activity, the inhibitory rate for each test substance is calculated, and the inhibitor concentration required to cause a 50% inhibition of the enzyme activity (IC50) is determined.
Whether the nucleic acids shown by SEQ ID NO: 1-8 inhibit the enzyme activity of chymase was determined as described below. The chymase substrate used was Suc-Ala-Ala-Pro-Phe-MCA (manufactured by Peptide Institute, Inc.), which contains the 4-amino-acid peptide Ala-Ala-Pro-Phe, a standard substrate for chymotrypsin-like proteases. Here, Suc is a protecting succinyl group, and MCA is a 4-methylcoumaryl-7-amide group; upon cleavage of the C-terminal side of phenylalanine, AMC (7-amino-4-methylcoumarine) is released. By detecting the fluorescence of this AMC, the enzyme activity of chymase can be determined. The assay was performed using a 96-well plate (F16 Black Maxisorp Fluoronunc, manufactured by Nunc), with a reaction mixture volume of 100 μL, in solution C as a buffer solution. Here, the solution C is a mixed solution of 145 mM sodium chloride, 5.4 mM potassium chloride, 1.8 mM calcium chloride, 0.8 mM magnesium chloride, 20 mM Tris (pH 7.6), and 0.05% Tween20. First, nucleic acid was serially diluted in solution C to obtain 50 μL solutions. After 10 μL of the 1 mM substrate prepared in solution C was added thereto, the plate was set to the microplate reader SpectraMax190 (manufactured by Molecular Devices Corporation), and incubated at 37° C. for 5 minutes. […] The chymase solution was added to the mixture of the nucleic acid and substrate to initiate an enzyme reaction. The final chymase concentration in the reaction mixture was 16.7 nM, the final substrate concentration being 100 μM. The plate containing the reaction mixture was set to the microplate reader SpectraMax190 (manufactured by Molecular Devices Corporation), and examined for time-dependent changes in the fluorescence intensity at 37° C. for 5 minutes (or 30 minutes) (excitation wavelength 380 nm, detection wavelength 460 nm). […]

[3] = Table 1, substrate Suc-Ala-Ala-Pro-Phe-MCA 100 μM, chymase 0.05 μg (16.7 nM), 37° C., mean of 2 or 3 measurements
[4] = Table 5, MCA substrate, amount of chymase 0.005 μg instead of 0.05 μg, one measurement

| Molecule | IC50 [2, 3] [nM] | other results |
| --- | --- | --- |
| CC(C)C[C@H](NC(=O)[C@@H](NC(=O)N[C@@H](Cc1ccccc1)C(=O)O)[C@@H]1CCN=C(N)N1)C(=O)N[C@H](C=O)Cc1ccccc1 [chymostatin, reference compound] | 100 to 200 | IC50 ([1]; Table 2, substrate angiotensin I 50 μM, chymase 0.5 nM, 37° C. 90 min): 350 to 500 nM |
| 21 (GGCAGAUGAUCGGACAUAACAGGUUAGAUAGAGUUAAAAACCUGGGGUGUCAA; 2'-fluoro at CU, RNA at AG, backbone not given here) [compound 21] |  | IC50 [2, 4]: 5.7 nM |
| 24 (GGCAGAUGAUCGGACAUAACAUAGAUAGAGUUAAAAUGGGGUGUCAA; 2'-fluoro at CU, RNA at AG, backbone not given here) [compound 24] |  | IC50 [2, 4]: 3.7 nM |
| 25 (GGCAGAUGAUCGGACAUAACAAGAUAGAGUUAAAUGGGGUGUCAA; 2'-fluoro at CU, RNA at AG, backbone not given here) [compound 25] |  | IC50 [2, 4]: 5.8 nM |
| B1 | 7 |  |
| B2 | 31 | IC50 ([1]; Table 3, angiotensin I as substrate, >1 = no inhibitory activity up to 1 μM): 10 nM; IC50 ([1]; Table 4, angiotensin I as substrate): 10 nM; IC50 ([1]; Table 6, angiotensin I as substrate): 10 nM |
| B3 | 52 |  |
| B4 | 10.8 |  |
| B5 | 35 |  |
| B6 | 41 |  |
| B7 | 5.5 |  |
| B8 | 26 |  |
